Results reported in patent US7727950B2, “Methods and reagents for assaying protein kinase activity” (The University of Dundee, priority 2002, dated 2010).

Columns and labels:
[1] = system: T1, CC(C)C[C@H](NC(=O)[C@H](CCCCN)NC(=O)[C@@H](N)CCCCN)C(=O)N[C@@H](CC(N)=O)C(=O)N[C@@H](CCCNC(=N)N)C(=O)N[C@H](C(=O)N[C@@H](CC(C)C)C(=O)N[C@@H](CO)C(=O)N[C@@H](Cc1ccccc1)C(=O)N[C@@H](C)C(=O)N[C@@H](CCC(=O)O)C(=O)N1CCC[C@H]1C(=O)NCC(=O)O)[C@@H](C)O; experiment: Kinetic parameters for peptide phosphorylation, radioactive filter-binding assay; type: biochemical, human; settings: other: PKBα; Standard Substrate = GRPRTSSFAEG; 30.0 °C
T1 construct: made in house; host or cells: Sf21 insect cells
From the text: Apart from the AMP-activated protein kinase (AMPK, a gift from Drs S. Hawley and D. G. Hardie), cGMP-dependent protein kinase (PKG, a generous gift from Drs Susan Lohmann and Ulrich Walter, University of Wurzburg, Germany) and the catalytic subunit of cyclic AMP-dependent protein kinase (PKA, a gift from Dr C. Smythe), which were isolated from rat liver, bovine lung and bovine heart, respectively, all other protein kinases were expressed as either GST-fusion or His-tagged proteins (by a person, a person, Dr A. Paterson or a person, in this Division). The expressed proteins all corresponded to the human sequences apart from the rat Rho-dependent protein kinase (ROCK-II) and rat mitogen-activated protein kinase (MAPK) activated kinase-1a (MAPKAP-K1a, also called RSK). […]
All protein kinase assays were linear with respect to time. […] All papers were subsequently washed a further three times in phosphoric acid, once in acetone, then dried and counted for radioactivity. […] The plates were then washed six times (five min per wash) in PBS, 0.1% Tween 20 and binding of the phospho-specific antibody detected by incubating the plates with peroxidase-conjugated anti-sheep antibodies (Pierce). […] Signals were quantitated on LAS-1000IR software (FujiFilm). […]

[2] = system: CC(C)C[C@H](NC(=O)[C@@H](NC(=O)[C@H](CCCNC(=N)N)NC(=O)[C@H](C)NC(=O)[C@@H](N)CCCNC(=N)N)[C@@H](C)O)C(=O)N[C@@H](CO)C(=O)N[C@@H](Cc1ccccc1)C(=O)N[C@@H](C)C(=O)N[C@@H](CCC(=O)O)C(=O)N1CCC[C@H]1C(=O)NCC(=O)O; experiment: purified protein, by the assay type; settings: other: CaMKII; Standard Substrate = MHRQETVDCLK; 30.0 °C
Description: All protein kinase assays were linear with respect to time. […] The assays with the three generic peptides introduced in this example were carried out in the same buffers as follow. Unlabelled or biotinylated substrate peptides were assayed for 10 min at 30° C. in 50 μl incubations, in the presence of 0.1 mM [y^32P]ATP or unlabelled ATP. Radioactive assays were terminated by spotting 40 μl of each incubation on to phosphocellulose paper followed by immersion in 75 mM phosphoric acid. All papers were subsequently washed a further three times in phosphoric acid, once in acetone, then dried and counted for radioactivity. Non-radioactive assays were terminated by the addition of EDTA to a final concentration of 20 mM, then diluted with an equal volume of phosphate-buffered saline (PBS), containing 0.1% Tween 20 and the biotinylated peptides captured by incubation for 60 min on pre-washed, 96 well Streptavidin coated plates (Equilon A/S, Vedbaek, Denmark). […] The plates were then washed six times (five min per wash) in PBS, 0.1% Tween 20 and binding of the phospho-specific antibody detected by incubating the plates with peroxidase-conjugated anti-sheep antibodies (Pierce). […] Signals were quantitated on LAS-1000IR software (FujiFilm).

[3] = system: CC(C)C[C@H](NC(=O)[C@H](CCCNC(=N)N)NC(=O)[C@H](CCCNC(=N)N)NC(=O)[C@@H](N)CCCNC(=N)N)C(=O)N[C@@H](CO)C(=O)N[C@@H](Cc1ccccc1)C(=O)N[C@@H](C)C(=O)N[C@@H](CCC(=O)O)C(=O)N1CCC[C@H]1C(=O)NCC(=O)O; experiment: purified protein, by the assay type; settings: other: PKA; Standard Substrate = LRRASLG; 30.0 °C

PKBα (Homo sapiens)
Km [1]: 2 µM

CaMKII (Homo sapiens)
Km [2]: 300 µM

PKA (Bos taurus)
Km [3]: 30 µM
